Laboratory results published in the supplement of paper PMC9170038.

System: MS2 coat protein
Assay: apparent KD of MS2 coat protein; designed switch direction (-1 OFF switch, 1 ON switch): -1; higher = weaker reporter binding
Outline: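 The apparent KD reported per design is the median over clusters of curve fits to normalised cluster fluorescence. The RNA switches were transcribed on Illumina chips by stalled E. coli RNA polymerase. SNAP-549-labelled MS2 coat protein was titrated from 0.7 or 1.5 nM, doubling up to 3 µM, in Tris-HCl pH 7.5 buffer containing KCl, MgCl2, BSA, DTT, tRNA and Tween-20, with no input, 200 uM small-molecule ligand, or an oligonucleotide input.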

[1] = Eterna round: R95, input ligand: microRNA oligo, concentration not stated
[2] = input ligand: microRNA oligo, concentration not stated
[3] = Eterna round: R95, input ligand: FMN 200 uM
[4] = Eterna round: R95, input ligand: none

UAUGGUUAAGUCAGGAUAUGCACGCAGAGAACAAAGCAGAAGGGACAUGAGGAUCACCCAUGUAAAGUCGUGUU [Ex4 #77] (Eterna round: R97, puzzle: Brourd's mod of Exclusion 4)
apparent KD of MS2 coat protein (input ligand: FMN 200 uM): 31.2 nM | apparent KD of MS2 coat protein (input ligand: none): 23 nM

ACUUAUUGAGGAUAUACAGAAAAUUACAUGAGGAUCACCCAUGUUCUUCAAUGUAUAUAUGUAGAAGGCAGAAGAA [JL-ex5-4.26 Malcolm mod] (Eterna round: R97, puzzle: Exclusion 5)
apparent KD of MS2 coat protein (input ligand: FMN 200 uM): 29.3 nM | apparent KD of MS2 coat protein (input ligand: none): 12.9 nM

AGAUCACAUGAGGAUCACCCAUGUGAGGAUAUAGAUUCAAGAGCUUCGGCUCUACAGUCUAGAAGGCACUAUGA [EX1 #46] (Eterna round: R97, puzzle: Exclusion 1)
apparent KD of MS2 coat protein (input ligand: FMN 200 uM): 30.4 nM | apparent KD of MS2 coat protein (input ligand: none): 25.7 nM

UAUUAGCUAGGAUAUACAUGAGGAUCACCCAUGUCACGGGUCAACUUGUCCUAUGCGUGUAGAAGGAGCGACCC [JL Ceriza mod 5] (puzzle: Exclusion 3)
apparent KD of MS2 coat protein [1]: 18.8 nM

GAAAACGAAGAGGAUAUUUGAUAUCAUAGCUUCAAAGAAGGCUUCACAUGAGGAUCACCCAUGUGAUCUUCAAU [Mat - Exclusion 6 - JL Mod - D19] (Eterna round: R97, puzzle: Exclusion 6)
apparent KD of MS2 coat protein (input ligand: FMN 200 uM): 116 nM | apparent KD of MS2 coat protein (input ligand: none): 23.8 nM

AAAAAGUCAGGAUAUGUAGCAAAAGGUGAUCAAAAAAAGCUACAGAAGGGACAUGAGGAUCACCCAUGUAAAAA [Ex4: 937] (Eterna round: R96, puzzle: Exclusion 4)
apparent KD of MS2 coat protein (input ligand: FMN 200 uM): 284 nM | apparent KD of MS2 coat protein [2]: 162 nM | apparent KD of MS2 coat protein (input ligand: none): 183 nM

UUUGUAUAGCAAGGAUAUGUUUAAUUAUAGUUGCCUCAUACAUGAGGAUCACCCAUGUUUUACUUACAGAAGGUGCAAUGAUUU [JR_ExcNG2_Sub035] (Eterna round: R96, puzzle: Exclusion NG 2)
apparent KD of MS2 coat protein [2]: 242 nM

GGUUAGAUGGUAGGAUAUCCAUAUCGAGUGACCCUUUCAUAACAUGAGGAUCACCCAUGUCGGUGGGAGAAGGGCCGUACGGCG [salish99_ExNG02_R04_011] (Eterna round: R96, puzzle: Exclusion NG 2)
apparent KD of MS2 coat protein (input ligand: FMN 200 uM): 35.5 nM | apparent KD of MS2 coat protein [2]: 38.3 nM | apparent KD of MS2 coat protein (input ligand: none): 33.2 nM

CGUUGCAGAGGAUAUACAUGAGGAUCACCCAUGUGAAAUUAUAGUGAGGAAAUGAAAAGUAGAAGGCUGUGACA [Mod of Mat 11 - Jieux - Exclusion 3] (Eterna round: R97, puzzle: Exclusion 3)
apparent KD of MS2 coat protein (input ligand: FMN 200 uM): 267 nM | apparent KD of MS2 coat protein (input ligand: none): 47.3 nM

GAAAAGGUAGGAUAUACGAAAAAAAAGGGUAGAAAAAAUACACAUGAGGAUCACCCAUGUAGAAGGACCAAAAG [salish99_ex2_r3_073] (puzzle: Exclusion 2)
apparent KD of MS2 coat protein [3]: 138 nM | apparent KD of MS2 coat protein [1]: 23.9 nM | apparent KD of MS2 coat protein [4]: 29.7 nM

UUUUAACAUGAGGAUCACCCAUGUGAGGAUAUCGAAAUUUAUAUUAAUAUUAUUAUUACGAGAAGGCACAUUUU [JMF 42] (puzzle: Exclusion 1)
apparent KD of MS2 coat protein [1]: 69.3 nM

UUUUCUUUUGUGAGGAUAUACUUCUUUUUUUUUUUGUAGAAGGCACAUGAGGAUCACCCAUGUUUUCUUUUCUG [JR_BME4_Sub027] (puzzle: Brourd's mod of Exclusion 4)
apparent KD of MS2 coat protein [1]: 22.1 nM

CAUGGAACGUAGGAUAUCUCACAGCCAGGCUGCAGAGAAGGACGUACAUGAGGAUCACCCAUGUAUGAUCCAAA [Tius] (puzzle: Exclusion 6)
apparent KD of MS2 coat protein [3]: 26.9 nM | apparent KD of MS2 coat protein [1]: 15.5 nM | apparent KD of MS2 coat protein [4]: 17.5 nM

CUCGUGUGAGGAUAUCUAUUCCACGGACGGGAGUCUUGAAGAGAGAAGGCACAUGAGGAUCACCCAUGUAAUAA [Latequ] (puzzle: Exclusion 4)
apparent KD of MS2 coat protein [1]: 107 nM

AAUUCACAUGAGGAUCACCCAUGUCAGGAUAUGGUUUCACGUUUUUCUUUUCUUGAGGCCAGAAGGGACAGCUA (puzzle: Exclusion 1)
apparent KD of MS2 coat protein [1]: 60.1 nM

CUUGUUUAUGUAGGAUAUGCCUGGCGUGCCUUUGCAGAAGGACAUGAGGAUCACCCAUGUACAUGAGGAUCACCCAUGUUCGCA [salish99_ExNG1_r04_102] (Eterna round: R96, puzzle: Exclusion NG 1)
apparent KD of MS2 coat protein (input ligand: FMN 200 uM): 836 nM | apparent KD of MS2 coat protein [2]: 455 nM | apparent KD of MS2 coat protein (input ligand: none): 825 nM

AGGUGCUUCUGGAGACAUGAGGAUCACCCAUGUCGAGUCAGCGAGGAUAUCGGUAAGGCAUGUGAUGAGAAGGCGCAGACCGAU [Ex NG3 #51] (Eterna round: R96, puzzle: Exclusion NG 3)
apparent KD of MS2 coat protein (input ligand: FMN 200 uM): 33.7 nM | apparent KD of MS2 coat protein [2]: 20.3 nM | apparent KD of MS2 coat protein (input ligand: none): 26.4 nM

AAUUAUUAUUGAGGAUAUCGUAUUGAAACAAUACGAGAAGGCGGAAUAAACAUGAGGAUCACCCAUGUGAGCCUGAUGCUUGUG [Ex NG1 #42] (Eterna round: R96, puzzle: Exclusion NG 1)
apparent KD of MS2 coat protein [2]: 13.4 nM

AGGUCCUUCUGGACACAUGAGGAUCACCCAUGUGCGGUCAGCGAGGAUAUCGGUCUAUAAUGUGACGAGAAGGCGCGGACCGAU [Ex NG3 #60] (Eterna round: R96, puzzle: Exclusion NG 3)
apparent KD of MS2 coat protein (input ligand: FMN 200 uM): 38.9 nM | apparent KD of MS2 coat protein [2]: 15.3 nM | apparent KD of MS2 coat protein (input ligand: none): 20.7 nM

CACCGUUAAAGAGGAUAUCGUACAUGAGGAUCACCCAUGUAAUAAAUGAGAAUUUCGGAUGUAUGCGAGAAGGCUUAAAUCGGC [Ostracism 47 - Jieux - Exclusion NG 2] (Eterna round: R96, puzzle: Exclusion NG 2)
apparent KD of MS2 coat protein [2]: 39.5 nM

AAUAACAAGCAGAUCCUAAACAUGAGGAUCACCCAUGUGCUCGUCUUGUAAAGUACUAUCACGAAAGUGAUAGUACA [Sensor 3, v1 - 59] (puzzle: Sensor v3, turn-off variant 1)
apparent KD of MS2 coat protein [3]: 67.5 nM | apparent KD of MS2 coat protein [1]: 186 nM | apparent KD of MS2 coat protein [4]: 76.5 nM

ACCUCACAUGAGGAUCACCCAUGUCAGGAUAUCUAAUGUAGUCGCGUUCCCGACGCUAAGAGAAGGGACGUUAA [EX1 #35] (Eterna round: R97, puzzle: Exclusion 1)
apparent KD of MS2 coat protein (input ligand: FMN 200 uM): 14.6 nM | apparent KD of MS2 coat protein (input ligand: none): 16.1 nM

GCGCGGCGUGUAGGAUAUGCGCGCGGGUCGCGCGCAGAAGGACAUGAGGAUCACCCAUGUGGCGCGCUUGGCGCGCCGCCGCGC [-48, -45 kcal and 14% A] (Eterna round: R96, puzzle: Exclusion NG 1)
apparent KD of MS2 coat protein (input ligand: FMN 200 uM): 16.6 nM | apparent KD of MS2 coat protein [2]: 9.64 nM | apparent KD of MS2 coat protein (input ligand: none): 12.9 nM

GUGCGGUGAGGAUAUACGUAGGUGAAAAUCUGUGUGCUCCUACAUGAGGAUCACCCAUGUAGAAGGCAUGUCAC [LRO-Excl2-15] (puzzle: Exclusion 2)
apparent KD of MS2 coat protein [1]: 14.7 nM

AAGAAUCUAGGAUAUUAGCGGGCCUACAUGAGGAUCACCCAUGUCGUGUCGCGGGUAUGCUGAGAAGGAGAGCACA [EX5 B.5] (Eterna round: R97, puzzle: Exclusion 5)
apparent KD of MS2 coat protein (input ligand: FMN 200 uM): 16.3 nM | apparent KD of MS2 coat protein (input ligand: none): 16.3 nM

CCAUCACAUGAGGAUCACCCAUGUCAGGAUAUCUCAGUGCAUCCACACGGACGCAUCAAGAGAAGGGACAAAAC [Vinxlusion 4 - Jieux - Exclusion 1] (Eterna round: R97, puzzle: Exclusion 1)
apparent KD of MS2 coat protein (input ligand: FMN 200 uM): 35.9 nM | apparent KD of MS2 coat protein (input ligand: none): 34.8 nM

CAAAAGGUAGGAUAUUAUGCCUGUAACAUGAGGAUCACCCAUGUGGUCCGAGACGGAGUUUAAGAAGGACCGAAAA [Masomariat] (puzzle: Exclusion 5)
apparent KD of MS2 coat protein [3]: 895 nM | apparent KD of MS2 coat protein [1]: 169 nM | apparent KD of MS2 coat protein [4]: 190 nM

GUAUAACAUGAGGAUCACCCAUGUCAGGAUAUGCGAAUUUCAUCAAAAGAUGAAAUUUGCAGAAGGGACUGUAC [Omei Ex1 A25] (Eterna round: R97, puzzle: Exclusion 1)
apparent KD of MS2 coat protein (input ligand: FMN 200 uM): 73.9 nM | apparent KD of MS2 coat protein (input ligand: none): 67.6 nM

CCGCAGCGGUAGGAUAUUAUGACGUCAUGGGCAUAAGAAGGACCGACAUGAGGAUCACCCAUGUUGGGUGCCCG [EX6 C.24] (Eterna round: R97, puzzle: Exclusion 6)
apparent KD of MS2 coat protein (input ligand: FMN 200 uM): 33.7 nM | apparent KD of MS2 coat protein (input ligand: none): 21.7 nM

UAUCGGGACUGAGGAUAUUCGUUCGAACACGAAGAAGAAGGUAGUGUCAGGGACAUGAGGAUCACCCAUGUGAACUCAGUCCUA [JL ViennaUCT Erinle mod] (Eterna round: R96, puzzle: Exclusion NG 1)
apparent KD of MS2 coat protein (input ligand: FMN 200 uM): 38.3 nM | apparent KD of MS2 coat protein [2]: 33.7 nM | apparent KD of MS2 coat protein (input ligand: none): 38.3 nM

CUAGGGCACAAUUAAACACCCUAACAUGAGGAUCACCCAUGUCAGGAUAUGUAGGCAAAGACCCUACAGAAGGGACAUGUCCUA [Laus] (Eterna round: R96, puzzle: Exclusion NG 3)
apparent KD of MS2 coat protein (input ligand: FMN 200 uM): 21.1 nM | apparent KD of MS2 coat protein [2]: 9.38 nM | apparent KD of MS2 coat protein (input ligand: none): 15.2 nM

ACUUGUUGUCCUUGAUAUUACAUGAGGAUCACCCAUGUUAUUGUGAUUAUGAUGUGUAAGUUUGUUGCUCGUUUUAU [JR_STOV1_Sub066] (Eterna round: R97, puzzle: Sensor, turn-off variant 1)
apparent KD of MS2 coat protein (input ligand: FMN 200 uM): 84.7 nM | apparent KD of MS2 coat protein (input ligand: none): 84 nM

CCAAGAAUAGGAUAUACACCAUGUCAGCUUCUAUACAACGCACAUGAGGAUCACCCAUGUAGAAGGGUUCUCUC [Exclusion-2-#3] (Eterna round: R97, puzzle: Exclusion 2)
apparent KD of MS2 coat protein (input ligand: FMN 200 uM): 386 nM | apparent KD of MS2 coat protein (input ligand: none): 433 nM

CCGCGCCGGCGAGGAUAUUAGAAAGGAAGUGUAUAAGAAGGCGCCAUGCGCGAACAUGAGGAUCACCCAUGUGCCGCUCGUGUA [PowerStrip EXNG 1.24] (Eterna round: R96, puzzle: Exclusion NG 1)
apparent KD of MS2 coat protein (input ligand: FMN 200 uM): 39.7 nM | apparent KD of MS2 coat protein [2]: 15.4 nM | apparent KD of MS2 coat protein (input ligand: none): 23.1 nM

GUAAGGCAUCUAGGAUAUAGUAUACGGCGAACAUGAGGAUCACCCAUGUGUCCGAAUGCGGCGAGCUAGAAGGAGAAAUUGCCC [Enuszarima] (Eterna round: R96, puzzle: Exclusion NG 2)
apparent KD of MS2 coat protein (input ligand: FMN 200 uM): 51.4 nM | apparent KD of MS2 coat protein [2]: 25.4 nM | apparent KD of MS2 coat protein (input ligand: none): 33.4 nM
